Patent US20210324359A1, “USE OF GRAM-NEGATIVE LYSIN-ANTIMICROBIAL PEPTIDE (AMP) POLYPEPTIDE CONSTRUCTS IN TREATING ENDOCARDITIS” (priority 2020, published 2021)

Experiments:
[1] = system: 15 P. aeruginosa isolates; assay: MIC of GN370 in dog, human, rabbit and rat serum and CAAT; meropenem in CAMHB (Table 33); type: cell-based, Pseudomonas aeruginosa; conditions: for MIC90: 15 isolates; for MIC GN370: diluted CAAT media
[2] = system: Pseudomonas aeruginosa strain CFS-1292 (meropenem resistant); assay: MIC in 25% CAA alone, with […] human serum or […] SURVANTA (Table 13); type: cell-based
Experimental: Materials and methods: MICs were determined by broth microdilution in media supplemented with human serum and pulmonary surfactant ([…]®; Myoderm Clinical Supplies). Minimal biofilm eradicating concentrations (MBECs) were determined using standard methods. […] Fluorescence microscopy was performed after LIVE/DEAD staining (ThermoFisher) and TEM was performed.

B1: GN370: lysin-AMP construct: MIDR, FIRL and NPTH moieties N-terminal to GN202 lysin (SEQ ID NO: 44) (protein)
chain: MIDRFIRLNPTHGPRRPRRPGRRAPVRTSQRGIDLIKSFEGLRLSAYQDSVGVWTIGYGTTRGVTRYMTITVEQAERMLSNDIQRFEPELDRLAKVPLNQNQWDALMSFVYNLGAANLASSTLLDLLNKGDYQGAADQFPHWVNAGGKRLDGLVKRRAAERALFLEPLS
MIC90 ([1]; dog serum): 4 µg/mL
MIC90 ([1]; human serum): 2 µg/mL
MIC90 ([1]; rabbit serum): 2 µg/mL
MIC90 ([1]; rat serum): 32 µg/mL
MIC GN370 ([1]; strain AR0231): 2 µg/mL
Serum MIC Dog ([1]; strain AR0231, dog serum): 2 µg/mL
Serum MIC Human ([1]; strain AR0231, human serum): 1 µg/mL
Serum MIC Rabbit ([1]; strain AR0231, rabbit serum): 1 µg/mL
Serum MIC Rat ([1]; strain AR0231, rat serum): 16 µg/mL
MIC GN370 ([1]; strain AR0241): 2 µg/mL
Serum MIC Dog ([1]; strain AR0241, dog serum): 1 µg/mL
Serum MIC Human ([1]; strain AR0241, human serum): 1 µg/mL
Serum MIC Rabbit ([1]; strain AR0241, rabbit serum): 1 µg/mL
Serum MIC Rat ([1]; strain AR0241, rat serum): 32 µg/mL
MIC GN370 ([1]; strain AR0246): 1 µg/mL
Serum MIC Dog ([1]; strain AR0246, dog serum): 4 µg/mL
Serum MIC Human ([1]; strain AR0246, human serum): 2 µg/mL
Serum MIC Rabbit ([1]; strain AR0246, rabbit serum): 2 µg/mL
Serum MIC Rat ([1]; strain AR0246, rat serum): 32 µg/mL
MIC GN370 ([1]; strain ATCC 25668): 0.5 µg/mL
Serum MIC Dog ([1]; strain ATCC 25668, dog serum): 2 µg/mL
Serum MIC Human ([1]; strain ATCC 25668, human serum): 1 µg/mL
Serum MIC Rabbit ([1]; strain ATCC 25668, rabbit serum): 2 µg/mL
Serum MIC Rat ([1]; strain ATCC 25668, rat serum): 16 µg/mL
MIC GN370 ([1]; strain ATCC 27853): 1 µg/mL
Serum MIC Dog ([1]; strain ATCC 27853, dog serum): 2 µg/mL
Serum MIC Human ([1]; strain ATCC 27853, human serum): 1 µg/mL
Serum MIC Rabbit ([1]; strain ATCC 27853, rabbit serum): 2 µg/mL
Serum MIC Rat ([1]; strain ATCC 27853, rat serum): 32 µg/mL
MIC GN370 ([1]; strain PA1): 0.5 µg/mL
Serum MIC Dog ([1]; strain PA1, dog serum): 1 µg/mL
Serum MIC Human ([1]; strain PA1, human serum): 2 µg/mL
Serum MIC Rabbit ([1]; strain PA1, rabbit serum): 2 µg/mL
Serum MIC Rat ([1]; strain PA1, rat serum): 16 µg/mL
MIC GN370 ([1]; strain PA2): 0.5 µg/mL
Serum MIC Dog ([1]; strain PA2, dog serum): 1 µg/mL
Serum MIC Human ([1]; strain PA2, human serum): 1 µg/mL
Serum MIC Rabbit ([1]; strain PA2, rabbit serum): 2 µg/mL
Serum MIC Rat ([1]; strain PA2, rat serum): 16 µg/mL
MIC GN370 ([1]; strain PA3): 1 µg/mL
Serum MIC Dog ([1]; strain PA3, dog serum): 2 µg/mL
Serum MIC Human ([1]; strain PA3, human serum): 2 µg/mL
Serum MIC Rabbit ([1]; strain PA3, rabbit serum): 2 µg/mL
Serum MIC Rat ([1]; strain PA3, rat serum): 16 µg/mL
MIC GN370 ([1]; strain PA19): 1 µg/mL
Serum MIC Dog ([1]; strain PA19, dog serum): 1 µg/mL
Serum MIC Human ([1]; strain PA19, human serum): 0.5 µg/mL
Serum MIC Rabbit ([1]; strain PA19, rabbit serum): 0.5 µg/mL
Serum MIC Rat ([1]; strain PA19, rat serum): 32 µg/mL
MIC GN370 ([1]; strain PA20): 1 to 2 µg/mL
Serum MIC Dog ([1]; strain PA20, dog serum): 2 µg/mL
Serum MIC Human ([1]; strain PA20, human serum): 1 µg/mL
Serum MIC Rabbit ([1]; strain PA20, rabbit serum): 2 µg/mL
Serum MIC Rat ([1]; strain PA20, rat serum): 32 µg/mL
MIC GN370 ([1]; strain PA22): 2 µg/mL
Serum MIC Dog ([1]; strain PA22, dog serum): 2 µg/mL
Serum MIC Human ([1]; strain PA22, human serum): 2 µg/mL
Serum MIC Rabbit ([1]; strain PA22, rabbit serum): 2 µg/mL
Serum MIC Rat ([1]; strain PA22, rat serum): 32 µg/mL
MIC GN370 ([1]; strain PA23): 2 µg/mL
Serum MIC Dog ([1]; strain PA23, dog serum): 2 µg/mL
Serum MIC Human ([1]; strain PA23, human serum): 1 µg/mL
Serum MIC Rabbit ([1]; strain PA23, rabbit serum): 2 µg/mL
Serum MIC Rat ([1]; strain PA23, rat serum): 32 µg/mL
MIC GN370 ([1]; strain PA24): 1 µg/mL
Serum MIC Dog ([1]; strain PA24, dog serum): 4 µg/mL
Serum MIC Human ([1]; strain PA24, human serum): 2 µg/mL
Serum MIC Rabbit ([1]; strain PA24, rabbit serum): 2 µg/mL
Serum MIC Rat ([1]; strain PA24, rat serum): 16 µg/mL
MIC GN370 ([1]; strain PA27): 0.5 µg/mL
Serum MIC Dog ([1]; strain PA27, dog serum): 2 µg/mL
Serum MIC Human ([1]; strain PA27, human serum): 2 µg/mL
Serum MIC Rabbit ([1]; strain PA27, rabbit serum): 2 µg/mL
Serum MIC Rat ([1]; strain PA27, rat serum): 16 µg/mL
MIC GN370 ([1]; strain PA453): 0.5 µg/mL
Serum MIC Dog ([1]; strain PA453, dog serum): 0.5 µg/mL
Serum MIC Human ([1]; strain PA453, human serum): 0.5 µg/mL
Serum MIC Rabbit ([1]; strain PA453, rabbit serum): 0.5 µg/mL
Serum MIC Rat ([1]; strain PA453, rat serum): 32 µg/mL
MIC in […] Survanta [2]: 2 µg/mL
MIC in human serum ([…]) in CAA [2]: 2 µg/mL
activity in human serum and pulmonary surfactant [2]: active in human serum and pulmonary surfactant
